The record followed here is PMC9482650, “Quantitative fragmentomics allow affinity mapping of interactomes” (Nature Communications, 2022).

Some targets named below: NHERF4_2, Q86UT5; HTRA1, Q92743; IL16_3, Q14005; NOS1, P29475; DLG1_3, Q12959; AHNAK1, Q09666; PTPN3, P26045; PICK1, Q9NRD5; MAST1, Q9Y2H9; TJP1_2, Q07157; MAGI2_5, Q86UL8; DLG2_3, Q15700.
Assay in all cases: holdup assay
Holding throughout (design): key: below the threshold = too weak to quantify, mostly under pKd 3.1 to 4

In another test the target is T1, DFNB31_3, Q9P202.
T1 sequence (Q9P202 811-907, limits assumed, looked up): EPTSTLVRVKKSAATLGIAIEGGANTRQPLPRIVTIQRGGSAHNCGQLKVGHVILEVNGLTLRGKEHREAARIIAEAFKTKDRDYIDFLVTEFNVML

A further test has as its target T2, MPDZ_12, O75970.
T2 sequence (O75970 1857-1958, limits assumed, looked up): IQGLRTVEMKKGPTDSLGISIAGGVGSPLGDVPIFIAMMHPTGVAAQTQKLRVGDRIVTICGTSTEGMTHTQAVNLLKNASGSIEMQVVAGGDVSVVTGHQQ

Another test concerns the target T3, MPDZ_5, O75970.
T3 sequence (O75970 695-796, limits assumed, looked up): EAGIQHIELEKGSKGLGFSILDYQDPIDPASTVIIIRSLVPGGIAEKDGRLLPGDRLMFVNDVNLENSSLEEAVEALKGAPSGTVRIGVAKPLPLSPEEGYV

A further test deals with T4, APBA3_1, O96018.
T4 sequence (O96018 389-490, limits assumed, looked up): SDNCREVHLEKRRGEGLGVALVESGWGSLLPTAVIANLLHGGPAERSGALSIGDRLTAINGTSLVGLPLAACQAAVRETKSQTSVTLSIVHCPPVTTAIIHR

A further test has as its target T5, ARHGEF11, O15085.
T5 sequence (O15085 42-136, limits assumed, looked up): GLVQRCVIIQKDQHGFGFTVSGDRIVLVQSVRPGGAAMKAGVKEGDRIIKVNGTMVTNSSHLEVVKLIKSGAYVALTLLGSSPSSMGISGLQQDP

A further test addresses T6, MPDZ_10, O75970.
T6 sequence (O75970 1624-1722, limits assumed, looked up): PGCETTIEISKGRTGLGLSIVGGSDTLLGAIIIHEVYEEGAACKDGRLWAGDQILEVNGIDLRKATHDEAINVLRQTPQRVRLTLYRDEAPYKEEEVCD

The next test deals with T7, LRRC7, Q96NW7.
T7 sequence (Q96NW7 1440-1537, limits assumed, looked up): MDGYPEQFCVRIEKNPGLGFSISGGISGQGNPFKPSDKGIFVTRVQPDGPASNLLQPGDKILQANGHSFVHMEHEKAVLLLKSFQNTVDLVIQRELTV

The next test has as its target T8, NHERF3_4, Q5T2W1.
T8 sequence (Q5T2W1 373-468, limits assumed, looked up): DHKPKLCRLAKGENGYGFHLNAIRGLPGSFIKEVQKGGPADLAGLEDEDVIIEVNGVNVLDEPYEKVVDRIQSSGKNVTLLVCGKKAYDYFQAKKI

A further test addresses T9, PDZRN3_1, Q9UPQ7.
T9 sequence (Q9UPQ7 244-349, limits assumed, looked up): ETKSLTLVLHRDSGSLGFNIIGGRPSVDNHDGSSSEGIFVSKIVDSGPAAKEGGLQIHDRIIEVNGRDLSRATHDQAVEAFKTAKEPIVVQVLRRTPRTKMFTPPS

For the next test, the target named is T10, DLG3_1, Q92796.
T10 sequence (Q92796 125-227, limits assumed, looked up): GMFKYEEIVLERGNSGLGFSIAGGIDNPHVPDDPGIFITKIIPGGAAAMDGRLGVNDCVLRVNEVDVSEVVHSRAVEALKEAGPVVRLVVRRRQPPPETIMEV

A further test addresses T11, LIN7A, O14910.
T11 sequence (O14910 103-200, limits assumed, looked up): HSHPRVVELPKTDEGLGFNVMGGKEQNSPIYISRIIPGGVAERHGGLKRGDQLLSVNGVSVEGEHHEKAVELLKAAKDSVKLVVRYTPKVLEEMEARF

Another test addresses T12, TX1BP3, O14907.
T12 sequence (O14907 10-122, limits assumed, looked up): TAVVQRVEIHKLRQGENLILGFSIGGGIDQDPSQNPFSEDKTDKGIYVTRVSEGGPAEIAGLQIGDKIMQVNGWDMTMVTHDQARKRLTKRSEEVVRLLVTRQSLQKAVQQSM

Setting [1] is: plain residues with an end cap or a label only (N-terminal biotin on a linker: ado-ado).
Where [2] appears, read: modified: phospho on T at position -2 from the C-terminal residue.

Sequence of TJP1_2, Q07157 (Q07157 181-274): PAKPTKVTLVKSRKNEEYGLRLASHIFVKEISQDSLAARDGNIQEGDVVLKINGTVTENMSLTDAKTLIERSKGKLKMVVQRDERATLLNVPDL
Sequence of PTPN3, P26045 (P26045 505-587): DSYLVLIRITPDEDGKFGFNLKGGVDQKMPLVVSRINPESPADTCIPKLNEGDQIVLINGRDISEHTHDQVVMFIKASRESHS
Sequence of IL16_3, Q14005 (Q14005 1107-1207): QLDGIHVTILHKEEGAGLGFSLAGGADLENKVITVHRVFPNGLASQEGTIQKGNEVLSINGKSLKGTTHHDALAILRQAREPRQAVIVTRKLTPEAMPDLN
Sequence of MAST1, Q9Y2H9 (Q9Y2H9 962-1065): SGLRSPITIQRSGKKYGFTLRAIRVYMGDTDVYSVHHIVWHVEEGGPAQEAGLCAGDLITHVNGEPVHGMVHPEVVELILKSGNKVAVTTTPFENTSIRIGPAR
Sequence of HTRA1, Q92743 (Q92743 360-477): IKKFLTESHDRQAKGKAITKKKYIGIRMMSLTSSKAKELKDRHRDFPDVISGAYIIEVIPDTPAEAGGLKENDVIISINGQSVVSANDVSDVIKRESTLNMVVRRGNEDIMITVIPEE
Sequence of NOS1, P29475 (P29475 9-101): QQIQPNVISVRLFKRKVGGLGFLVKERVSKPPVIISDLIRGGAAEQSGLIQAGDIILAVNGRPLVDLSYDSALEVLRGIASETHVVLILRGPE
Sequence of AHNAK1, Q09666 (Q09666 4-100): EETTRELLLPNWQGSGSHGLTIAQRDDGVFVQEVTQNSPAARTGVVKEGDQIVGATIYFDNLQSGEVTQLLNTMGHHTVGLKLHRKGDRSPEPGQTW
Sequence of DLG1_3, Q12959 (Q12959 457-571): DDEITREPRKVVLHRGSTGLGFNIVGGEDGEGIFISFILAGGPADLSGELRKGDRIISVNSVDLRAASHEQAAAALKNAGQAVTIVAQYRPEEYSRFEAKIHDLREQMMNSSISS
Sequence of MAGI2_5, Q86UL8 (Q86UL8 915-1017): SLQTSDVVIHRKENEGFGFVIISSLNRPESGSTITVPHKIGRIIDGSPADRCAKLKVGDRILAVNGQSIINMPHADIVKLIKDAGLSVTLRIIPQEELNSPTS
Sequence of NHERF4_2, Q86UT5 (Q86UT5 220-308): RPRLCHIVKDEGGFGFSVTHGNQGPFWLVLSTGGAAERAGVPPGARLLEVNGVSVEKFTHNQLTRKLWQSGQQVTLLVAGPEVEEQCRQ
Sequence of PICK1, Q9NRD5 (Q9NRD5 17-115): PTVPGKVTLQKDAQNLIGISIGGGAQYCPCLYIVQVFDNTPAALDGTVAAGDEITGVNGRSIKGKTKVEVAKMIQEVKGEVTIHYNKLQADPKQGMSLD

B1: SLCO1B1, Q9Y6L6 (peptide)
chain: SAGADSETHC
With B1, the pKd entry was “below the threshold” with NHERF4_2, Q86UT5 (setting [1]); 3.55 in the test with DFNB31_3, Q9P202 (setting [1]); “below the threshold” with MPDZ_12, O75970 (setting [1]); “below the threshold” with MPDZ_5, O75970 (setting [1]); “below the threshold” with APBA3_1, O96018 (setting [1]); “below the threshold” with ARHGEF11, O15085 (setting [1]). Moreover, the pKd is 3.51 with HTRA1, Q92743 (setting [1]); “below the threshold” in the test with MPDZ_10, O75970 (setting [1]); “below the threshold” with LRRC7, Q96NW7 (setting [1]); “below the threshold” with IL16_3, Q14005 (setting [1]); “below the threshold” with NHERF3_4, Q5T2W1 (setting [1]); “below the threshold” with PDZRN3_1, Q9UPQ7 (setting [1]). Further, the pKd result with NOS1, P29475 (setting [1]) was “below the threshold”; in the test with DLG3_1, Q92796 (setting [1]), “below the threshold”; in the test with DLG1_3, Q12959 (setting [1]), “below the threshold”; with LIN7A, O14910 (setting [1]) it was “below the threshold”; with AHNAK1, Q09666 (setting [1]), “below the threshold”; with PTPN3, P26045 (setting [1]), 4.01. The pKd result is “below the threshold” in the test with TX1BP3, O14907 (setting [1]); “below the threshold” with PICK1, Q9NRD5 (setting [1]); 3.9 with MAST1, Q9Y2H9 (setting [1]); “below the threshold” with TJP1_2, Q07157 (setting [1]); “below the threshold” with MAGI2_5, Q86UL8 (setting [1]); “below the threshold” in the test with DLG2_3, Q15700 (setting [1]).

B2: ADRA1D, P25100 (peptide)
chain: DYSNLRETDI
For B2, the pKd result is “below the threshold” with NHERF4_2, Q86UT5 (setting [1]); 3.91 with DFNB31_3, Q9P202 (setting [1]); “below the threshold” in the test with MPDZ_12, O75970 (setting [1]); “below the threshold” in the test with MPDZ_5, O75970 (setting [1]); “below the threshold” with APBA3_1, O96018 (setting [1]); “below the threshold” in the test with ARHGEF11, O15085 (setting [1]). Also, the negative logarithm of the Kd (pKd) result with HTRA1, Q92743 (setting [1]) was “below the threshold”; with MPDZ_10, O75970 (setting [1]), “below the threshold”; with LRRC7, Q96NW7 (setting [1]) it was 3.48; with IL16_3, Q14005 (setting [1]), “below the threshold”; in the test with NHERF3_4, Q5T2W1 (setting [1]), “below the threshold”; in the test with PDZRN3_1, Q9UPQ7 (setting [1]), 3.69. Also, the pKd result with NOS1, P29475 (setting [1]) is “below the threshold”; in the test with DLG3_1, Q92796 (setting [1]), 3.6; with DLG1_3, Q12959 (setting [1]), “below the threshold”; with LIN7A, O14910 (setting [1]) it was “below the threshold”; with AHNAK1, Q09666 (setting [1]), “below the threshold”; with PTPN3, P26045 (setting [1]) it was 4.57. Besides, the pKd was 4.51 in the test with TX1BP3, O14907 (setting [1]); 4.1 in the test with PICK1, Q9NRD5 (setting [1]); 4.34 with MAST1, Q9Y2H9 (setting [1]); “below the threshold” with TJP1_2, Q07157 (setting [1]); “below the threshold” with MAGI2_5, Q86UL8 (setting [1]); “below the threshold” with DLG2_3, Q15700 (setting [1]).

B3: HPV33-E6_-2P, P06427 (peptide)
chain: SRSRRRETAL
Turning to B3, the pKd result with NHERF4_2, Q86UT5 (setting [2]) is “below the threshold”; with DFNB31_3, Q9P202 (setting [2]), 4.02; with MPDZ_12, O75970 (setting [2]) it was “below the threshold”; with MPDZ_5, O75970 (setting [2]) it was “below the threshold”; with APBA3_1, O96018 (setting [2]) it was “below the threshold”; with ARHGEF11, O15085 (setting [2]) it was “below the threshold”. Moreover, the pKd result with HTRA1, Q92743 (setting [2]) is listed as “below the threshold”; with MPDZ_10, O75970 (setting [2]) it was “below the threshold”; with LRRC7, Q96NW7 (setting [2]) it was “below the threshold”; with IL16_3, Q14005 (setting [2]) it was “below the threshold”; in the test with NHERF3_4, Q5T2W1 (setting [2]) it was “below the threshold”; with PDZRN3_1, Q9UPQ7 (setting [2]) it was “below the threshold”. The pKd with NOS1, P29475 (setting [2]) is 3.75; with DLG3_1, Q92796 (setting [2]) it was “below the threshold”; with DLG1_3, Q12959 (setting [2]), “below the threshold”; with LIN7A, O14910 (setting [2]), “below the threshold”; in the test with AHNAK1, Q09666 (setting [2]), “below the threshold”; with PTPN3, P26045 (setting [2]) it was 4.02. The pKd result with TX1BP3, O14907 (setting [2]) is on record as “below the threshold”; with PICK1, Q9NRD5 (setting [2]) it was “below the threshold”; with MAST1, Q9Y2H9 (setting [2]) it was “below the threshold”; in the test with TJP1_2, Q07157 (setting [2]), “below the threshold”; with MAGI2_5, Q86UL8 (setting [2]) it was “below the threshold”; in the test with DLG2_3, Q15700 (setting [2]) it was “below the threshold”.

B4: LPAR1, Q92633 (peptide)
chain: GVHSNDHSVV
For the molecule B4, the negative-log Kd (pKd) result in the test with NHERF4_2, Q86UT5 (setting [1]) was “below the threshold”; with DFNB31_3, Q9P202 (setting [1]), “below the threshold”; in the test with MPDZ_12, O75970 (setting [1]), “below the threshold”; with MPDZ_5, O75970 (setting [1]) it was “below the threshold”; with APBA3_1, O96018 (setting [1]) it was “below the threshold”; with ARHGEF11, O15085 (setting [1]), 3.58. Besides, the pKd is 4.3 with HTRA1, Q92743 (setting [1]); “below the threshold” with MPDZ_10, O75970 (setting [1]); “below the threshold” with LRRC7, Q96NW7 (setting [1]); “below the threshold” with IL16_3, Q14005 (setting [1]); “below the threshold” with NHERF3_4, Q5T2W1 (setting [1]); “below the threshold” with PDZRN3_1, Q9UPQ7 (setting [1]). In addition, the pKd entry is “below the threshold” with NOS1, P29475 (setting [1]); “below the threshold” with DLG3_1, Q92796 (setting [1]); “below the threshold” with DLG1_3, Q12959 (setting [1]); “below the threshold” in the test with LIN7A, O14910 (setting [1]); “below the threshold” with AHNAK1, Q09666 (setting [1]); “below the threshold” with PTPN3, P26045 (setting [1]). Besides, the pKd result in the test with TX1BP3, O14907 (setting [1]) is “below the threshold”; in the test with PICK1, Q9NRD5 (setting [1]), “below the threshold”; with MAST1, Q9Y2H9 (setting [1]) it was 3.89; with TJP1_2, Q07157 (setting [1]), “below the threshold”; with MAGI2_5, Q86UL8 (setting [1]), “below the threshold”; with DLG2_3, Q15700 (setting [1]) it was “below the threshold”.

As a reminder, the pKd is the negative decadic logarithm of the Kd, by convention in mol/L.
